B1: Speckle-type POZ protein (Homo sapiens), O43791 (parent)
chain: MSRVPSPPPPAEMSSGPVAESWCYTQIKVVKFSYMWTINNFSFCREEMGEVIKSSTFSSGANDKLKWCLRVNPKGLDEESKDYLSLYLLLVSCPKSEVRAKFKFSILNAKGEETKAMESQRAYRFVQGKDWGFKKFIRRDFLLDEANGLLPDDKLTLFCEVSVVQDSVNISGQNTMNMVKVPECRLADELGGLWENSRFTDCCLCVAGQEFQAHKAILAARSPVFSAMFEHEMEESKKNRVEINDVEPEVFKEMMCFIYTGKAPNLDKMADDLLAAADKYALERLKVMCEDALCSNLSVENAAEILILADLHSADQLKTQAVDFINYHASDVLETSGWKSMVVSHPHLVAEAYRSLASAQCPFLGPPRKRLKQS
partner: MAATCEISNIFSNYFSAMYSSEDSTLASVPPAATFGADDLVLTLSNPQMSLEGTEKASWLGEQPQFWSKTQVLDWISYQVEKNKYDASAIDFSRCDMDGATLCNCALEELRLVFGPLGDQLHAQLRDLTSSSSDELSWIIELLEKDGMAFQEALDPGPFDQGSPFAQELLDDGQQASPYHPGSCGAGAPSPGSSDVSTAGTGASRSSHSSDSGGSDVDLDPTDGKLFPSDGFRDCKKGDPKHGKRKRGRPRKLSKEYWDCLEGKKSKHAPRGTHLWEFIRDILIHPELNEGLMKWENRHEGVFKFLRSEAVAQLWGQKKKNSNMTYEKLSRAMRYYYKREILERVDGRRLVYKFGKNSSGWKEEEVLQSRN
B2: Speckle-type POZ protein (Homo sapiens), O43791 (parent)
chain: B1 chain
partner: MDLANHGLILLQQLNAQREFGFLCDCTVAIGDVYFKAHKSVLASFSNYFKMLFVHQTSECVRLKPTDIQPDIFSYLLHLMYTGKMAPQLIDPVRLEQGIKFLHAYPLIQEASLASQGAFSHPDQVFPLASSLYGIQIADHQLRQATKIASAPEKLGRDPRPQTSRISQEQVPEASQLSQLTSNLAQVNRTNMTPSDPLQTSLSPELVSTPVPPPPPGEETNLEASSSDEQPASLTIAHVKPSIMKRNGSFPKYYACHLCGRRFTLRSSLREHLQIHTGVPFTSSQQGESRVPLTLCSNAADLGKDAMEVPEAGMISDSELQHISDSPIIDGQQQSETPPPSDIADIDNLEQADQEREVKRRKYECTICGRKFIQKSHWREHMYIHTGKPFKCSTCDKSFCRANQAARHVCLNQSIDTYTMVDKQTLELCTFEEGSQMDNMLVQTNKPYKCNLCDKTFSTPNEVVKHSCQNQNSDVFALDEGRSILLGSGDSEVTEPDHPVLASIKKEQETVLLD
B3: Speckle-type POZ protein (Homo sapiens), O43791 (parent)
chain: B1 chain
partner: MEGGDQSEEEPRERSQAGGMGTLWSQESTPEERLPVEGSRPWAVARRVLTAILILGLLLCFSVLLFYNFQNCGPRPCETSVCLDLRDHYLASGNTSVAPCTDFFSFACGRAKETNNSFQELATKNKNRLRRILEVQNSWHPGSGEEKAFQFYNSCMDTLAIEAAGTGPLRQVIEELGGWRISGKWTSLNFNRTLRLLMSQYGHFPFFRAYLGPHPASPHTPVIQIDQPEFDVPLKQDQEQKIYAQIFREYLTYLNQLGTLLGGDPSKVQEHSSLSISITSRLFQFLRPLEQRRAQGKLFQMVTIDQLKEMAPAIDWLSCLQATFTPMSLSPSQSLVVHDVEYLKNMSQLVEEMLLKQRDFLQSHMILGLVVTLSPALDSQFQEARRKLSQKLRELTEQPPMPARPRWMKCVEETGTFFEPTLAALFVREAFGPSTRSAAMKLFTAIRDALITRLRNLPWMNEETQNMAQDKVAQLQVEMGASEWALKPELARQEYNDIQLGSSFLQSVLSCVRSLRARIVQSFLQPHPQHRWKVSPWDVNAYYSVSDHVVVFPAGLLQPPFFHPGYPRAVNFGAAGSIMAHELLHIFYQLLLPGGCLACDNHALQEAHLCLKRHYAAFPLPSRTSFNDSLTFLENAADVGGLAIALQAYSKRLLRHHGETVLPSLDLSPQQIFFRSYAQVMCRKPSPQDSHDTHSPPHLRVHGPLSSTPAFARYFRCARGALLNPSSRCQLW
B4: Speckle-type POZ protein (Homo sapiens), O43791 (parent)
chain: B1 chain
partner: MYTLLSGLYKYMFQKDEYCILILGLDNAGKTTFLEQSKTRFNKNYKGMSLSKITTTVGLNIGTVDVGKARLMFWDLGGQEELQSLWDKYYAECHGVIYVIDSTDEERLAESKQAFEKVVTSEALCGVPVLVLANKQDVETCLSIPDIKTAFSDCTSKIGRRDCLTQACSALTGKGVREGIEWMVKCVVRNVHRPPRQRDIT
B5: Speckle-type POZ protein (Homo sapiens), O43791 (parent)
chain: B1 chain
partner: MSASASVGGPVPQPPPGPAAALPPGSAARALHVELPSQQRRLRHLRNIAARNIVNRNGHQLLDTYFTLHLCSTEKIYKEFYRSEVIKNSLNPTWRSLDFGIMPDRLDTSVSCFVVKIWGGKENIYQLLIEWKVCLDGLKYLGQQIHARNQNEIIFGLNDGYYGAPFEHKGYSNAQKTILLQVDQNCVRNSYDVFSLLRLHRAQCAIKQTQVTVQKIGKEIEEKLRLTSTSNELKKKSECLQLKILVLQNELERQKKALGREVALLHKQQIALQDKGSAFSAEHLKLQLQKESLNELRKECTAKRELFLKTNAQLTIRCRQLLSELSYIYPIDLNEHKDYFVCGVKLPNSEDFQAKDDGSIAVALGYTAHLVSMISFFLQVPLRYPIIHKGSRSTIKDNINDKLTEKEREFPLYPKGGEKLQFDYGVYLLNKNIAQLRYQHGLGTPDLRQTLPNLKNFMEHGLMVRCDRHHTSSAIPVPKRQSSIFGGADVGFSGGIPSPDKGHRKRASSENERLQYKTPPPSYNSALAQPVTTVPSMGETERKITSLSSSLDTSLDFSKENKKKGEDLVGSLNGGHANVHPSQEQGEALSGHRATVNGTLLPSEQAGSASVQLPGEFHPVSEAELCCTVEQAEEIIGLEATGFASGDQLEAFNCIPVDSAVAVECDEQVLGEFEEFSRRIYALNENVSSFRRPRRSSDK

Variants of: B1
Settings: with elf3_human ELF3, P78545
Y87C was tested, and the “effect of a mutation on the interaction” value was “with no effect”.

Variants of: B2
Settings: with zbtb2_human ZBTB2, Q8N680
For Y87C, the “effect of a mutation on the interaction” value was “with no effect”.

Variants of: B2
Settings: with zbtb2_human ZBTB2, Q8N680
Remark: another data set of the same source
With F133V the “effect of a mutation on the interaction” value was “causing an interaction”.

Variants of: B2
Settings: with zbtb2_human ZBTB2, Q8N680
Remark: another data set of the same source
F133L was tested, and the “effect of a mutation on the interaction” value was “with no effect”.

Variants of: B2
Settings: with zbtb2_human ZBTB2, Q8N680
Remark: another data set of the same source
With F133L the “effect of a mutation on the interaction” value was “causing an interaction”.

Variants of: B3
Settings: with kell_human KEL
In the case of F133V, the “effect of a mutation on the interaction” value is reported as “with no effect”.

Variants of: B3
Settings: with kell_human KEL
Remark: another data set of the same source
For F133L, the “effect of a mutation on the interaction” value was “with no effect”.

Variants of: B3
Settings: with kell_human KEL
Remark: another data set of the same source
Y87C was tested, and the “effect of a mutation on the interaction” value was “with no effect”.

Variants of: B4
Settings: with arfrp_human ARFRP1, Q13795
Y87C was tested, and the “effect of a mutation on the interaction” value was “with no effect”.

Variants of: B5
Settings: with uvrag_human UVRAG
For Y87C, the “effect of a mutation on the interaction” value was “with no effect”.

Reference: IntAct's records for PubMed 35512704
